This assay concerns the target T1, 人CD20 (Raji细胞表面) (human, UniProt P11836 1-297).
T1 construct: whole, on cells; The target is native on the B lymphoma lines Raji (and Daudi); No recombinant CD20 was used; also called 高表达CD20的Raji细胞
T1 sequence (looked up): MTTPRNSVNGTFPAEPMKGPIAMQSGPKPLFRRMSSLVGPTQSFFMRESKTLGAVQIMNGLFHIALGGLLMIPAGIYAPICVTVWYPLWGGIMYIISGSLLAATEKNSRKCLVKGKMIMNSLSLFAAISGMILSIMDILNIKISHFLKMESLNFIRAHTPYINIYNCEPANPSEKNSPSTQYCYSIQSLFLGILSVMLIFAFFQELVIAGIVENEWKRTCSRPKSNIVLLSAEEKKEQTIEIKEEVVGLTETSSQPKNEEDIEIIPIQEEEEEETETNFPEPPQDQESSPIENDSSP
As to the kind of experiment: in vitro antigen binding assay, flow cytometry on Raji cells.

B1: 抗人CD20人源化抗体hu3D9 (hu3D9Hb/hu3D9Lb) (antibody, human IgG1, kappa, V domains shown)
VH: EVQLVESGGGLVQPGGSLRLSCAASGYTFTNYWMQWVRQAPGQGLEWISAIYPGDGDTRYTQKFKGRATLSADKSKNTAYLQMNSLRAEDTAVYYCAREGAYGYDDGMDYWGQGTLVTVSS
VL: DIVLTQSPSSLSASVGDRVTITCRASQSIRNNLHWYQQKPGKAPKLLIKYASQSISGVPSRFSGSGSGTDFTLTISSLQPEDFATYYCQQSNSWPLTFGQGTKVEIKR
notes: Humanised antibody with 12 mouse framework residues kept
For the molecule B1, the binding result is “binds”.

(Values after patent CN102050878A (NAT ENGINEERING RES CT OF ANTIBODY MEDICINE SHANGHAI CO LTD, dated 2011).)
